# Source: PMC8038949, “Structural basis for the DNA-binding activity of human ARID4B Tudor domain”
# T1: ARID4B TD121 E50L (Homo sapiens, UniProt Q4LE39 1-121, E50L)
# T1 sequence: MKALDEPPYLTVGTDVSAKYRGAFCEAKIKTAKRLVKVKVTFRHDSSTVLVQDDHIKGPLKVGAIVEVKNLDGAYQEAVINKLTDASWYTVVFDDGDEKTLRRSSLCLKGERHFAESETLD
# Target: T1, ARID4B TD121 E50L
# Assay: EMSA; stronger than wild-type ARID4B TD121; 50 mM Tris-HCl pH 7.6, 50 mM NaCl (buffer A); ITC 25 C; EMSA 4 C, 12 uM DNA, 8% native gel in TBE; NMR titration by 1H-15N HSQC (temperature not stated for titration; buffer A also defined elsewhere as 20 mM phosphate, 100 mM NaCl, pH 7.0)
# Conditions: protein: recombinant; 5' overhang 1 nt on each strand (17 bp paired)
binder,measurement,value
dsDNA1 (dsDNA) DNA 1: CTCAGGTCAAAGGTCACG DNA 2: TCGTGACCTTTGACCTGA,binding result,binds
